Source: PMC10754689

Key:
Assay in all cases: TPM
[1] = system: LI Int wt (Listeria innocua prophage (phage LI)); conditions: 5 mM Mg2+, TPM (LI Int): 20 mM Tris-HCl pH 8.0, 150 mM KCl, 5% glycerol, 5 mM MgCl2, 5 mM DTT, 2 mg/mL BSA, 22°C, 30 min, φC31 Int at 20 nM, its buffer not in the …
[2] = system: LI Int ΔCC (Listeria innocua prophage (phage LI)); conditions: 200 or 400 nM Int, 5 mM Mg2+, TPM (LI Int): 20 mM Tris-HCl pH 8.0, 150 mM KCl, 5% glycerol, 5 mM MgCl2, 5 mM DTT, 2 mg/mL BSA, 22°C, 30 min, φC31 Int at 20 nM, its buffer not in the …
[3] = system: LI Int S10A (Listeria innocua prophage (phage LI)); conditions: 5 mM Mg2+, TPM (LI Int): 20 mM Tris-HCl pH 8.0, 150 mM KCl, 5% glycerol, 5 mM MgCl2, 5 mM DTT, 2 mg/mL BSA, 22°C, 30 min, φC31 Int at 20 nM, its buffer not in the …
[4] = system: LI Int K362A (Listeria innocua prophage (phage LI)); conditions: 200 or 400 nM Int, 5 mM Mg2+, TPM (LI Int): 20 mM Tris-HCl pH 8.0, 150 mM KCl, 5% glycerol, 5 mM MgCl2, 5 mM DTT, 2 mg/mL BSA, 22°C, 30 min, φC31 Int at 20 nM, its buffer not in the …
[5] = system: φC31 Int ΔCC (Streptomyces coelicolor phage φC31); conditions: TPM (LI Int): 20 mM Tris-HCl pH 8.0, 150 mM KCl, 5% glycerol, 5 mM MgCl2, 5 mM DTT, 2 mg/mL BSA, 22°C, 30 min, φC31 Int at 20 nM, its buffer not in the …
[6] = system: φC31 Int wt (Streptomyces coelicolor phage φC31); conditions: TPM (LI Int): 20 mM Tris-HCl pH 8.0, 150 mM KCl, 5% glycerol, 5 mM MgCl2, 5 mM DTT, 2 mg/mL BSA, 22°C, 30 min, φC31 Int at 20 nM, its buffer not in the …

Substance: LI attB-attP head-to-tail 1303 bp
- binding signal ([1]; 100 nM Int): 81.1 % DNA bound
- binding signal [2]: 17.8 % DNA bound
- binding signal ([3]; 100 nM Int): 76.4 % DNA bound
- binding signal [4]: 54.9 % DNA bound

Substance: LI attL-attR head-to-tail 1303 bp
- binding signal ([1]; 200 nM Int, no RDF): 48.6 % DNA bound
- binding signal ([2]; no RDF): 16.1 % DNA bound
- binding signal ([3]; 200 nM Int, no RDF): 51.7 % DNA bound
- binding signal ([4]; no RDF): 20.5 % DNA bound

Substance: φC31 attB-attP head-to-tail 1303 bp
- binding signal ([5]; 20 nM Int): 30.6 % DNA bound
- binding signal ([6]; 20 nM Int): 80.4 % DNA bound

Substance: φC31 attL-attR head-to-tail 1303 bp
- binding signal [5]: 21 % DNA bound
- binding signal [6]: 19.9 % DNA bound
